Article PMC10488932

Tests used:
[1] = biological target: Sm-like protein from Sulfolobus acidocaldarius (SacSm) (Sulfolobus acidocaldarius); test: dynamic light scattering; particle size under native conditions, Zetasizer Nano ZSP, 25 °C, detection angle 173°
[2] = biological target: hybrid chaperone protein ADGroEL–SacSm (Escherichia coli | Sulfolobus acidocaldarius); test: as above

stoichiometry N [1] | stoichiometry N [2] | Substance
7 | – | Sm-like protein from Sulfolobus acidocaldarius (SacSm) (natural protein)
– | 7 | hybrid chaperone protein ADGroEL–SacSm
